Test results published in US11103459B2, “Method of drug formulation based on increasing the affinity of active agents for crystalline microparticle surfaces” (MannKind Corporation, priority 2005, dated 2021).
Read-outs that look alike come from different tables or passages of the source. Where no end group is shown, it is not given here.

Key:
[1] = Active agent/FDKP microparticle adsorption studies (loading curves, HPLC); format: physicochemical; settings: for binding of GLP-1 onto the FDKP microparticle surface: 100 mM TMAO
Experimental: Aqueous samples at varying pH and at 20° C. (unless otherwise noted) were analyzed.
The association of active agent with diketopiperazine (DKP) particles in suspension was evaluated by conducting adsorption studies.
(§1) Unbound active agent in the supernatant was filtered off the suspension. […] The amount of active agent in both the supernatant and reconstituted fractions was quantitated by HPLC. A series of experiments were conducted in which conditions employed included use of additives such as salts, osmolytes, chaotropes and kosmotropes, and alcohols.
The concentration of the chaotrope or kosmotrope in the samples was held constant at 100 mM and the pH varied from 2.0 to 5.0. Chaotropes or kosmotropes were selected from the following: NaSCN, CsCl, Na2SO4, (CH3)3N—HCl, […], Na Citrate, and NaClO4. The control indicates no chaotrope or kosmotrope were added.
The concentration of the osmolyte (stabilizer) in the samples was held constant at 100 mM and the pH varied from about 2.0 to about 5.0. The osmolytes were selected from hexylene-glycol (Hex-Gly), trehalose, glycine, PEG, TMAO, mannitol and proline; the control indicates no osmolyte.
In assessing the effect of modifiers on the active agent that allows for adsorption to the microparticle surface by a hydrophobic mechanism, the effect of alcohols were examined. […] The effect of each alcohol was observed over a pH range of 2.0 to 5.0. The alcohols used were trifluoroethanol (TFE) and hexafluoroisopropanol (HFIP). Each alcohol was evaluated at varying concentrations which include 5%, 10%, 15%, or 20% v/v.
(§2) The amount of active agent detected in reconstituted microparticle-free control samples as a function of pH and NaCl concentration was assessed. The pH was controlled with a 20 mM potassium phosphate/20 mM potassium acetate mixture.

[2] = Active agent detected in reconstituted microparticle-free control samples (precipitation, HPLC); format: physicochemical
Experimental: as §1
Similar observations were disclosed in U.S. Provisional Application Ser. No. 60/744,882.
The effect of TFE was less pronounced, and at the lower pHs tested was detrimental. […] The mass ratios in FIGS. 3C-D reflect both adsorbed and precipitated active agent although precipitation is an increasingly minor component as the pH decreased toward 3.0.
as §2

[3] = in the presence of NaSCN, NaClO4, Na2SO4, NaNO3 and Na citrate; cited from earlier work

## ghrelin (GSSFLSPEHQRVQQRKESKKPPAKLQPR; ends and bridges not checked; UniProt Q9UBU3 24-51, looked up)
[1]; 100 mM mannitol, PEG, glycine, Hex-Gly, trehalose, pH about 4.0 to 5.0
  affinity of ghrelin for the microparticle surface vs control: greater affinity
[1]; HFIP and TFE at 5%, 10%, 15%, 20% v/v, pH 2.0-4.0
  affinity of ghrelin for the microparticle surface (mass ratio of ghrelin to FDKP particles): greatly improved affinity

## glucagon-like peptide 1 [GLP-1]
[1]; 100 mM PEG and proline, pH 2.0 to 4.0
  affinity for adsorption of GLP-1 onto FDKP particle surface: improved the affinity
[1]; pH 2.0
  binding of GLP-1 onto the FDKP microparticle surface: more effective than PEG or proline
[1]; pH 3.0 and above
  binding of GLP-1 onto the FDKP microparticle surface: modestly detrimental
[1]; 100 mM chaotropes and kosmotropes, pH 2.0-4.0, greater effect at lower pH
  affinity of GLP-1 for the FDKP microparticles: improved affinity
[1]; HFIP and TFE at 5% and 10%, pH 2.0-5.0
  affinity of GLP-1 for the microparticle surface: improved affinity
[1]; NaCl, pH 4.0 and above
  binding of GLP-1 to FDKP particles: reduction in binding
[1]; TFE, lower pHs tested
  effect of TFE on GLP-1 affinity for the microparticle surface: detrimental
[1]; all NaCl concentrations tested, pH about 2.0 to about 3.5
  binding (adsorption) of GLP-1 to FDKP particles: enhanced binding
[2]; 10% HFIP and TFE, pH 4.0
  GLP-1 peptide detected in reconstituted microparticle-free control samples: 0.13 to 0.19 mg/mL
[2]; 10% HFIP or TFE, pH 2.0
  GLP-1 peptide detected in reconstituted microparticle-free control samples: no GLP-1 was detected
[3]
  GLP-1 peptide detected in reconstituted microparticle-free control samples: 0.02 to 0.04 mg/mL

## insulin [reference compound]
[1]; 100 mM chaotropes and kosmotropes, pH 3.0, […] insulin, 5 mg/mL FDKP
  affinity of insulin for the FDKP microparticle surface vs control: improved the affinity
[1]; 100 mM chaotropes and kosmotropes, pH 4
  affinity of insulin for the FDKP microparticle surface vs control: this effect was not observed
[1]; 100 mM chaotropes and kosmotropes, pH 5.0 (insulin precipitated)
  adsorption of insulin to the FDKP microparticle surface vs control: interfered with the adsorption
[1]; 100 mM osmolytes (PEG, glycine, trehalose, mannitol, Hex-Gly), pH 3.0 to 5.0
  affinity of insulin for the FDKP particle surface: significantly improved affinity
[1]; 100-500 mM NaCl, pH about 2.5 to about 3.5
  binding (adsorption) of insulin onto FDKP particles: increased binding
[1]; all NaCl concentrations tested, pH about 4.0 to about 5.0
  adsorption of insulin to the FDKP particle: reduction in the adsorption

## parathyroid hormone [PTH]
[1]; 250 to 1000 mM NaCl, pH about 2.0 to about 3.5
  binding of PTH to the FDKP particles: enhanced binding
[1]; in the presence of salt, pH about 3.5 to about 5.0
  binding of PTH to the microparticle: decreased
[1]; strong chaotropes NaSCN and NaClO4, pH 4.0 to about 4.5
  affinity of PTH for the FDKP microparticle surface: greater
